Sequences and labels used below:
B1: 69307 scFv (VH-VK) (scFv)
chain: EVQLVESGGGLVQPGGSLRLSCTASGFTFSNYWMTWVRQAPGKGLEWVANIKEDGSEKEYVDSVKGRFTISRDNAKNSLYLQMNSLRGEDTAVYYCARDGEQLVDYYYYYVMDVWGQGTTVTVSSDIQMTQSPSSVSASVGDRVTITCRASQGISSWLAWYQQKPGKAPKLLIYAASSLQSGVPSRFSGSGSGTDFTLTISSLQPEDFATYYCQKADSLPYAFGQGTKLEIK
B2: 12799B scFv (VH-VK) (scFv)
chain: QITLKESGPTLVKPTQTLTLTCTFSGFSLSTSGVGVVWIRQPPGKALEWLALIYWNDHKRYSPSLGSRLTITKDTSKNQVVLTMTNMDPVDTATYYCAHYSGSYSYYYYGLDVWGQGTTVTVSSDIQMTQSPSSVSASVGDRVTITCRASQGIASWLAWYQQKPGKAPELLIYAASSLQGGVPSRFSGSGSGTDFTLTISSLQPEDFAIYYCQQANYFPWTFGQGTKVEIK
B3: 12802B scFv (VH-VK) (scFv)
chain: QVQLVESGGGLVKPGGSLRLSCAASGFTFSDYFMSWIRQAPGKGLEWVSYISSTGSTINYADSVKGRFTISRDNVKNSLYLQMTSLRVEDTAVYYCTRDNWNYEYWGQGTLVTVSSEIVMTQSPATLSVSPGERATLSCRASQSVSINLAWYQQKPGQAPRLLIFVASTRATGIPARFSGSGSGTEFTLTISSLQSEDFATYYCQQYDIWPYTFGQGTKLEIK
B4: 12798B scFv (VH-VK) (scFv)
chain: EVQLVESGGDLVQPGRSLRLSCAASGFTFDDYAMHWVRQAPGKGLEWVSGISWNSATRVYADSVKGRFTISRDNAKNFLYLQMNSLRSEDTALYHCAKDMDISLGYYGLDVWGQGTTVTVSSEIVMTQSPATLSVSPGERATLSCRASQTVSSNLAWYQQKPGQAPRLLIYGSSSRATGIPARFSGSGSGTEFTLTISSLQSEDFAVYYCQQYNNWPPYTFGQGTKLEIK
B5: 12812B scFv (VH-VK) (scFv)
chain: QVQLVQSGAEVKKPGSSVRVSCKASRGTFSSYAISWVRQAPGQGLEWMGGIIPIFGTANYAQKFLARVTITADESTSTAYMELSSLRSEDTAVYYCAREKGWNYFDYWGQGTLVTVSSDIQMTQSPPSVSASVGDRVTITCRASQGISSWLAWYQQKPGKAPKLLIYAASSLQSGVPSRFSGSGSGTDFTLTISSLQPEDFATYYCQQANSFPRTFGQGTKVEIK

These results are taken from patent US20250041455A1 (Regeneron, published 2025).

The target of the assay is T1, hmm.hTfRC (REGN2431) (human, UniProt P02786 89-760).
T1 construct: also called hmm.hTfR(C89-F763); His-myc-myc-hTFRC ecto
T1 sequence (P02786 other isoform, or with tags, fused parts or gaps): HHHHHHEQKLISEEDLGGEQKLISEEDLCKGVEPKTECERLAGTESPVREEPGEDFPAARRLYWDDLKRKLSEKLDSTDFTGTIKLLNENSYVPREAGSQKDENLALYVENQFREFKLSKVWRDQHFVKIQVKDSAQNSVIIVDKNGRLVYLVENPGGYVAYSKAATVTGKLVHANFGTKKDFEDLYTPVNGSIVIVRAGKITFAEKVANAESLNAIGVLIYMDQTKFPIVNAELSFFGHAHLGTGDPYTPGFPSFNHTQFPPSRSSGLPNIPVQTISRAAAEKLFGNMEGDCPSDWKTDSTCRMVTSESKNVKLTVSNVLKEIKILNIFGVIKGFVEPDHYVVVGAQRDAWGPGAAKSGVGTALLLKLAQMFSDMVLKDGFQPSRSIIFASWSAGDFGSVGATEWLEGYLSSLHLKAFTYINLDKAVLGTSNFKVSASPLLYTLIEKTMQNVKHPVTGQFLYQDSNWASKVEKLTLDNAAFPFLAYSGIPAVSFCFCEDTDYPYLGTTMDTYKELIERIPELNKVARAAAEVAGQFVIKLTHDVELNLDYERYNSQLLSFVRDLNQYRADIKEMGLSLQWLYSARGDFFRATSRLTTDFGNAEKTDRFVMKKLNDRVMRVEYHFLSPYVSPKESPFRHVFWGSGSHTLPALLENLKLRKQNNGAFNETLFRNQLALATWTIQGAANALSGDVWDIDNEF
The assay is described as follows: blocking ELISA; Hmm-hTFRC + supernatant on plate-bound holo-Tf. Background: In an ELISA, binding on a coated surface is turned into a signal by an enzyme label.
On to B1, for which the “% Blocking” value is 9%.

On to B2, for which the “% Blocking” value came out at 26%.

Consider B3, for which the “% Blocking” value is 11%.

Turning to B4, the “% Blocking” value was 0%.

As for B5, the “% Blocking” value came to 19%.
